Measurements published in US20200121803A1 (published 2020).
Where a chain is given by its changes, count along the chain named.

T1: human CD98 on the cell surface (human)
T1 chain: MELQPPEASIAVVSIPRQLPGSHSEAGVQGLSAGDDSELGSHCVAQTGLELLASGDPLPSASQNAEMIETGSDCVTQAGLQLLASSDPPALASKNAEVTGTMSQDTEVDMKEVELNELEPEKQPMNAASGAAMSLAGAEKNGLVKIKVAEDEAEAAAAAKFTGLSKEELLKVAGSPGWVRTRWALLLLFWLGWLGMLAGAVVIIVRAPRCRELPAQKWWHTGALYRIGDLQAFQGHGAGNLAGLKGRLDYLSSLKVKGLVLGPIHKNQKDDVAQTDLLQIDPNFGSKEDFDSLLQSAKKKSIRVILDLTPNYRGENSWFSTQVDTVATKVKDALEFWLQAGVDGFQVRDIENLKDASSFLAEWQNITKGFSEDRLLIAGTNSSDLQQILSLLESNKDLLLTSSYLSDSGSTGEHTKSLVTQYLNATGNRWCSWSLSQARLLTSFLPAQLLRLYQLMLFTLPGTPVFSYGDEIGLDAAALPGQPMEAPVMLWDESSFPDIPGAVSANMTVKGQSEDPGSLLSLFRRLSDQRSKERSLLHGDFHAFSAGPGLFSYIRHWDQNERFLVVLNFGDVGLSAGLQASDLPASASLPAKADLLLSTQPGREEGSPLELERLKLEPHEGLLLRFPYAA

T2: human CD98, endogenously expressed on Molt-4 human acute lymphoblastic leukemia cells (human)
T2 chain: T1 chain

B1: ChAb13-CZ (other)
VH: QVQLKESGPGLVQPSQTLSLTCTVSGFSLSSYGVIWVRQPPGKGLEWMGIIWANGNTNYNSALKSRLSISRDTSKSQVYLKMNSLQTEDTATYYCARHYYDGTHYYGYFDYWGQGVMVTVSS
VL: DTVMTQTPSSQAVSAGEKVTMSCKSSQSLLYSENKKKYLAWYQQKPGQSPKLLIYWASTRESGVPDRFIGSGSGTDFTLTISSVQAEDLAVYYCQQYYNFPYTFGAGTKLELK
modifications: synthon CZ on reduced interchain Cys of the constant regions (sites not numbered)
B2: CD98 (CL-huAb102)-SE (antibody, human IgG1, kappa, L234A L235A, V domains shown)
VH: EVQLVESGGGLVQPGGSLRLSCATSGFTFIDYYMSWVRQAPGKGLEWLGFIRNKANRYTTEYSASVKGRFTISRDNSKSILYLQMNSLKTEDTAVYYCTRDRPAWFVYWGQGTLVTVSS
VL: DIVMTQTPLSLPVTPGEPASISCKSSQSLLYSSNQKNYLAWYLQKPGQSPQLLIYWASTRESGVPDRFSGSGSGTDFTLKISRVEAEDVGVYYCQQYYSYPYTFGGGTKVEIKR
modifications: synthon SE on reduced cysteine (see heavy chain); Bcl-xL inhibitor synthon SE on cysteines freed by TCEP reduction (Method A); DAR 2.2 by MS for the whole ADC
B3: CD98 (CL-huAb104)-YG (antibody, human IgG1, kappa, L234A L235A, V domains shown)
VH: B2 VH with N56Y, R57G
VL: B2 VL
modifications: synthon YG on reduced cysteine (see heavy chain); Bcl-xL inhibitor synthon YG on cysteines freed by TCEP reduction (Method E); DAR 1.3 by MS for the whole ADC
B4: CD98 (CL-huAb110)-SR (antibody, human IgG1, kappa, L234A L235A, V domains shown)
VH: EVQLVQSGAEVKKPGASVKVSCKASGFTFSDYTMAWVRQAPGQGLEWVATIIYDARGTYYRDAVKGRFTITRDNSTSTLYLELSSLRSEDTAVYYCARQSDDTYYYWGYFDYWGQGTMVTVSS
VL: B2 VL with S22N, Y31F, S33G, E61Q, V91I, Y100S, G106Q, V110L
modifications: synthon SR on reduced cysteine (see heavy chain); Bcl-xL inhibitor synthon SR on cysteines freed by TCEP reduction (Method A); DAR printed as '.0.7' by MS for the whole ADC
B5: CD98 (CL-huAb110)-SE (antibody, human IgG1, kappa, L234A L235A, V domains shown)
VH: B4 VH
VL: B2 VL with S22N, Y31F, S33G, E61Q, V91I, Y100S, G106Q, V110L
modifications: synthon SE on reduced cysteine (see heavy chain); Bcl-xL inhibitor synthon SE on cysteines freed by TCEP reduction (Method A); DAR 1.9 by MS for the whole ADC
B6: CD98 (CL-huAb104)-SE (antibody, human IgG1, kappa, L234A L235A, V domains shown)
VH: B2 VH with N56Y, R57G
VL: B2 VL
modifications: synthon SE on reduced cysteine (see heavy chain); Bcl-xL inhibitor synthon SE on cysteines freed by TCEP reduction (Method A); DAR 2.4 by MS for the whole ADC
B7: CD98 (CL-huAb104)-KZ (antibody, human IgG1, kappa, L234A L235A, V domains shown)
VH: B2 VH with N56Y, R57G
VL: B2 VL
modifications: synthon KZ on reduced cysteine (see heavy chain); Bcl-xL inhibitor synthon KZ on cysteines freed by TCEP reduction (Method A); DAR 2.6 by MS for the whole ADC
B8: CD98 (CL-huAb102)-KZ (antibody, human IgG1, kappa, L234A L235A, V domains shown)
VH: B2 VH
VL: B2 VL
modifications: synthon KZ on reduced cysteine (see heavy chain); Bcl-xL inhibitor synthon KZ on cysteines freed by TCEP reduction (Method A); DAR 2.8 by MS for the whole ADC
B9: CD98 (CL-huAb102)-KZ (second row with this label, r76, DAR 2.2) (antibody, human IgG1, kappa, L234A L235A, V domains shown)
VH: B2 VH
VL: B2 VL
modifications: synthon KZ on reduced cysteine (see heavy chain); Bcl-xL inhibitor synthon KZ on cysteines freed by TCEP reduction (Method A); DAR 2.2 by MS for the whole ADC
B10: CD98 (CL-huAb102)-SR (antibody, human IgG1, kappa, L234A L235A, V domains shown)
VH: B2 VH
VL: B2 VL
modifications: synthon SR on reduced cysteine (see heavy chain); Bcl-xL inhibitor synthon SR on cysteines freed by TCEP reduction (Method A); DAR 2.1 by MS for the whole ADC
B11: CD98 (CL-huAb104)-SR (antibody, human IgG1, kappa, L234A L235A, V domains shown)
VH: B2 VH with N56Y, R57G
VL: B2 VL
modifications: synthon SR on reduced cysteine (see heavy chain); Bcl-xL inhibitor synthon SR on cysteines freed by TCEP reduction (Method A); DAR 2.2 by MS for the whole ADC
B12: CD98 (CL-huAb110)-YG (antibody, human IgG1, kappa, L234A L235A, V domains shown)
VH: B4 VH
VL: B2 VL with S22N, Y31F, S33G, E61Q, V91I, Y100S, G106Q, V110L
modifications: synthon YG on reduced cysteine (see heavy chain); Bcl-xL inhibitor synthon YG on cysteines freed by TCEP reduction (Method E); DAR 2.8 by MS for the whole ADC
B13: CD98 (CL-huAb102)-YG (antibody, human IgG1, kappa, L234A L235A, V domains shown)
VH: B2 VH
VL: B2 VL
modifications: synthon YG on reduced cysteine (see heavy chain); Bcl-xL inhibitor synthon YG on cysteines freed by TCEP reduction (Method E); DAR 1.1 by MS for the whole ADC
B14: ChAb1-CZ (other)
VH: EVKLVESGGGLVQPGGSLRLSCATSGFTFTDYYMSWVRQPPGKALEWLGFIRNPANVYTTEYSASVKGRFTISRDNSQSILYLQMNTLRAEDSATYYCARASYGNSEGWFAYWGQGTLVTVSA
VL: DIVMSQSPSSLAVSVGEKVTMSCKSSQNLLYNNNQKNYLAWYQQKPGQSPKLLIYWASTRESGVPDRFTGSGSGTDFTLTISSVKAEDLAVYYCQQYYSYPRTFGGGTKLEIK
modifications: synthon CZ on reduced interchain Cys of the constant regions (sites not numbered)
B15: ChAb3-CZ (other)
VH: EVKLVESGGGLVQPGNSLRLSCATSGFTFIDYYMSWVRQSPGKALEWLGFIRNKANGYTTEYSASVKGRFTISRDNSQSILYLQMDTLRAEDSATYYCTRDRPAWFVYWGQGTLVTVSA
VL: B14 VL with N28S, N32S, N33S, I81F, K85R, R102Y
modifications: synthon CZ on reduced interchain Cys of the constant regions (sites not numbered)
B16: ChAb5-CZ (other)
VH: B14 VH with S35T, P54K, V57G, Q78L, G104V
VL: B14 VL with N28S, N32S, N33S, P46L, Q96H
modifications: synthon CZ on reduced interchain Cys of the constant regions (sites not numbered)
B17: ChAb8-CZ (other)
VH: EVQLVESGGGLVQPGRSLKLSCAASGFTFSDYAMAWVRQAPKKGLEWVASIIYDGRGTYYRDSVKGRFTISRDNAKSTLYLQMDSLRSEDTATYYCARQGDGTYYYWGYFDYWGQGVMVTVSS
VL: DIVMTQSPSSLAVSAGETVTINCKSSQSLLSSGNQKNYLAWYQQKPGQSPKLLIYWASTRQSGVPDRFIGSGSGTDFTLTINSVQAEDLAIYYCQQYYDTPYTFGAGTKLELK
modifications: synthon CZ on reduced interchain Cys of the constant regions (sites not numbered)
B18: ChAb11-CZ (other)
VH: B17 VH with S50G
VL: B17 VL with K24R, N82S
modifications: synthon CZ on reduced interchain Cys of the constant regions (sites not numbered)
B19: ChAb10-CZ (other)
VH: B17 VH with G44S, S50T, Y60C, Y105H
VL: B17 VL with N82S, L110V, E111D
modifications: synthon CZ on reduced interchain Cys of the constant regions (sites not numbered)
B20: ChAb15-CZ (other)
VH: B17 VH with A33T, S50T, G100S
VL: B17 VL with S31F, N82R, T100S
modifications: synthon CZ on reduced interchain Cys of the constant regions (sites not numbered)
B21: ChAb12-CZ (other)
VH: B17 VH with Y109S
VL: B17 VL with N82S, Y93H
modifications: synthon CZ on reduced interchain Cys of the constant regions (sites not numbered)

Assays:
[1] = target: T1, human CD98 on the cell surface; experiment: cell-based or functional assay
[2] = target: T2, human CD98, endogenously expressed on …; experiment: cell-based or functional assay

Binder | ADC potency, IC50 (nM), H146 (SCLC) growth inhibition [1] | ADC potency, IC50 (nM), H2170 (NSCLC) growth inhibition [1] | ADC potency, IC50 (nM), MOLT4 (leukemia) growth inhibition [1] | % Cell Viability at 50 nM (Molt-4) [2] | Molt4 IC50 (nM), 50% inhibition of cell proliferation, 72 h, ATPlite [2]
B1 | 0.115 nM | 0.321 nM | 0.052 nM | – | –
B2 | – | – | – | 19.7% | 0.107 nM
B3 | – | – | – | 25.3% | 2.67 nM
B4 | – | – | – | 11% | 0.332 nM
B5 | – | – | – | 5.7% | 0.502 nM
B6 | – | – | – | 17.1% | 0.149 nM
B7 | – | – | – | 21.2% | 0.089 nM
B8 | – | – | – | 20.7% | 0.062 nM
B9 | – | – | – | 16.2% | 0.35 nM
B10 | – | – | – | 12.7% | 0.03 nM
B11 | – | – | – | 2.7% | 0.045 nM
B12 | – | – | – | 10% | 0.493 nM
B13 | – | – | – | 31.9% | 1.21 nM
B14 | ~0.196 nM | 0.276 nM | 0.071 nM | – | –
B15 | 0.255 nM | ~0.171 nM | 0.026 nM | – | –
B16 | ~0.188 nM | 0.161 nM | 0.029 nM | – | –
B17 | 0.094 nM | 0.112 nM | 0.038 nM | – | –
B18 | 0.527 nM | 0.195 nM | 0.199 nM | – | –
B19 | 0.209 nM | 0.09 nM | 0.035 nM | – | –
B20 | 0.194 nM | 0.137 nM | 0.048 nM | – | –
B21 | 0.242 nM | 0.118 nM | 0.034 nM | – | –
